Source: PMC9019090

Target: FBXW7 (FBXW7α) (UniProt Q969H0)
Experiment: Co-IP and reciprocal co-IP, immunoblot
Conditions: reference: Flag-ERRα wild type; sites S19,S22,S26

- binding against the reference: weaker
Substance: ERRα (from UniProt P11474) Flag-ERRα 3SA (S19A+S22A+S26A)
